Molecular target: dynein light chain LC8 (UniProt P63167)
Experiment: ITC; peptide (500 μM) injected into 25 μM LC8 in the cell; 25°C; 50 mM sodium phosphate, 50 mM NaCl, 1 mM sodium azide, 5 mM β-mercaptoethanol, pH 7.5; single-site model; averages of two to three experiments

Chain of dynein light chain LC8 (P63167 whole entry): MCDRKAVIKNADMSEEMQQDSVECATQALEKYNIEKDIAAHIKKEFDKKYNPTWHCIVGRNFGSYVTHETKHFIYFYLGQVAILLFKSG

Kd: 10 µM
stoichiometry N (peptide per LC8 chain): 1
Substance: HIV Tat-specific factor 1 (HTATSF1) peptide

— paper PMC6607443, “Systematic identification of recognition motifs for the hub protein LC8” (Life Science Alliance, 2019)
